B1: SEQ ID NO: 42 (peptide)
peptide: Ac-LEGREKVR[Aib]QI[Aib][Aib]EGMSTWS[Aib]R-NH2
SMILES: CC[C@H](C)[C@H](NC(=O)[C@H](CCC(N)=O)NC(=O)C(C)(C)NC(=O)[C@H](CCCNC(=N)N)NC(=O)[C@@H](NC(=O)[C@H](CCCCN)NC(=O)[C@H](CCC(=O)O)NC(=O)[C@H](CCCNC(=N)N)NC(=O)CNC(=O)[C@H](CCC(=O)O)NC(=O)[C@H](CC(C)C)NC(C)=O)C(C)C)C(=O)NC(C)(C)C(=O)NC(C)(C)C(=O)N[C@@H](CCC(=O)O)C(=O)NCC(=O)N[C@@H](CCSC)C(=O)N[C@@H](CO)C(=O)N[C@H](C(=O)N[C@@H](Cc1c[nH]c2ccccc12)C(=O)N[C@@H](CO)C(=O)NC(C)(C)C(=O)N[C@@H](CCCNC(=N)N)C(N)=O)[C@@H](C)O
B2: SEQ ID NO: 43 (peptide)
peptide: Ac-LEGREKVRA[Aib]I[Aib][Aib]EGMSTWS[Aib]R-NH2
SMILES: CC[C@H](C)[C@H](NC(=O)C(C)(C)NC(=O)[C@H](C)NC(=O)[C@H](CCCNC(=N)N)NC(=O)[C@@H](NC(=O)[C@H](CCCCN)NC(=O)[C@H](CCC(=O)O)NC(=O)[C@H](CCCNC(=N)N)NC(=O)CNC(=O)[C@H](CCC(=O)O)NC(=O)[C@H](CC(C)C)NC(C)=O)C(C)C)C(=O)NC(C)(C)C(=O)NC(C)(C)C(=O)N[C@@H](CCC(=O)O)C(=O)NCC(=O)N[C@@H](CCSC)C(=O)N[C@@H](CO)C(=O)N[C@H](C(=O)N[C@@H](Cc1c[nH]c2ccccc12)C(=O)N[C@@H](CO)C(=O)NC(C)(C)C(=O)N[C@@H](CCCNC(=N)N)C(N)=O)[C@@H](C)O
B3: SEQ ID NO: 41 (peptide)
peptide: Ac-LEGREKVRAQI[Aib][Aib]EGMSTWS[Aib]R-NH2
SMILES: CC[C@H](C)[C@H](NC(=O)[C@H](CCC(N)=O)NC(=O)[C@H](C)NC(=O)[C@H](CCCNC(=N)N)NC(=O)[C@@H](NC(=O)[C@H](CCCCN)NC(=O)[C@H](CCC(=O)O)NC(=O)[C@H](CCCNC(=N)N)NC(=O)CNC(=O)[C@H](CCC(=O)O)NC(=O)[C@H](CC(C)C)NC(C)=O)C(C)C)C(=O)NC(C)(C)C(=O)NC(C)(C)C(=O)N[C@@H](CCC(=O)O)C(=O)NCC(=O)N[C@@H](CCSC)C(=O)N[C@@H](CO)C(=O)N[C@H](C(=O)N[C@@H](Cc1c[nH]c2ccccc12)C(=O)N[C@@H](CO)C(=O)NC(C)(C)C(=O)N[C@@H](CCCNC(=N)N)C(N)=O)[C@@H](C)O
B4: SEQ ID NO: 40 (peptide)
peptide: Ac-LEGREKVRAQI[Aib][Aib]EGMSTWSKR-NH2
SMILES: CC[C@H](C)[C@H](NC(=O)[C@H](CCC(N)=O)NC(=O)[C@H](C)NC(=O)[C@H](CCCNC(=N)N)NC(=O)[C@@H](NC(=O)[C@H](CCCCN)NC(=O)[C@H](CCC(=O)O)NC(=O)[C@H](CCCNC(=N)N)NC(=O)CNC(=O)[C@H](CCC(=O)O)NC(=O)[C@H](CC(C)C)NC(C)=O)C(C)C)C(=O)NC(C)(C)C(=O)NC(C)(C)C(=O)N[C@@H](CCC(=O)O)C(=O)NCC(=O)N[C@@H](CCSC)C(=O)N[C@@H](CO)C(=O)N[C@H](C(=O)N[C@@H](Cc1c[nH]c2ccccc12)C(=O)N[C@@H](CO)C(=O)N[C@@H](CCCCN)C(=O)N[C@@H](CCCNC(=N)N)C(N)=O)[C@@H](C)O
B5: SEQ ID NO: 36 (peptide)
peptide: Ac-LEGREKVRAQI[Aib][Aib]EG[Nle]SK[1Nal]SKR-NH2
SMILES: CCCC[C@H](NC(=O)CNC(=O)[C@H](CCC(=O)O)NC(=O)C(C)(C)NC(=O)C(C)(C)NC(=O)[C@@H](NC(=O)[C@H](CCC(N)=O)NC(=O)[C@H](C)NC(=O)[C@H](CCCNC(=N)N)NC(=O)[C@@H](NC(=O)[C@H](CCCCN)NC(=O)[C@H](CCC(=O)O)NC(=O)[C@H](CCCNC(=N)N)NC(=O)CNC(=O)[C@H](CCC(=O)O)NC(=O)[C@H](CC(C)C)NC(C)=O)C(C)C)[C@@H](C)CC)C(=O)N[C@@H](CO)C(=O)N[C@@H](CCCCN)C(=O)N[C@@H](Cc1cccc2ccccc12)C(=O)N[C@@H](CO)C(=O)N[C@@H](CCCCN)C(=O)N[C@@H](CCCNC(=N)N)C(N)=O
B6: SEQ ID NO: 37 (peptide)
peptide: Ac-LEGREKVRAQI[Aib][Aib]EG[Nle]ST[1Nal]SKR-NH2
SMILES: CCCC[C@H](NC(=O)CNC(=O)[C@H](CCC(=O)O)NC(=O)C(C)(C)NC(=O)C(C)(C)NC(=O)[C@@H](NC(=O)[C@H](CCC(N)=O)NC(=O)[C@H](C)NC(=O)[C@H](CCCNC(=N)N)NC(=O)[C@@H](NC(=O)[C@H](CCCCN)NC(=O)[C@H](CCC(=O)O)NC(=O)[C@H](CCCNC(=N)N)NC(=O)CNC(=O)[C@H](CCC(=O)O)NC(=O)[C@H](CC(C)C)NC(C)=O)C(C)C)[C@@H](C)CC)C(=O)N[C@@H](CO)C(=O)N[C@H](C(=O)N[C@@H](Cc1cccc2ccccc12)C(=O)N[C@@H](CO)C(=O)N[C@@H](CCCCN)C(=O)N[C@@H](CCCNC(=N)N)C(N)=O)[C@@H](C)O
B7: SEQ ID NO: 38 (peptide)
peptide: Ac-LEGREKVRAQI[Aib][Aib]EGMSKWSKR-NH2
SMILES: CC[C@H](C)[C@H](NC(=O)[C@H](CCC(N)=O)NC(=O)[C@H](C)NC(=O)[C@H](CCCNC(=N)N)NC(=O)[C@@H](NC(=O)[C@H](CCCCN)NC(=O)[C@H](CCC(=O)O)NC(=O)[C@H](CCCNC(=N)N)NC(=O)CNC(=O)[C@H](CCC(=O)O)NC(=O)[C@H](CC(C)C)NC(C)=O)C(C)C)C(=O)NC(C)(C)C(=O)NC(C)(C)C(=O)N[C@@H](CCC(=O)O)C(=O)NCC(=O)N[C@@H](CCSC)C(=O)N[C@@H](CO)C(=O)N[C@@H](CCCCN)C(=O)N[C@@H](Cc1c[nH]c2ccccc12)C(=O)N[C@@H](CO)C(=O)N[C@@H](CCCCN)C(=O)N[C@@H](CCCNC(=N)N)C(N)=O
B8: SEQ ID NO: 4 (peptide)
peptide: Ac-LEGREKVRAQI[Aib][Aib]EGMSTWS[Aib]RKK-NH2
SMILES: CC[C@H](C)[C@H](NC(=O)[C@H](CCC(N)=O)NC(=O)[C@H](C)NC(=O)[C@H](CCCNC(=N)N)NC(=O)[C@@H](NC(=O)[C@H](CCCCN)NC(=O)[C@H](CCC(=O)O)NC(=O)[C@H](CCCNC(=N)N)NC(=O)CNC(=O)[C@H](CCC(=O)O)NC(=O)[C@H](CC(C)C)NC(C)=O)C(C)C)C(=O)NC(C)(C)C(=O)NC(C)(C)C(=O)N[C@@H](CCC(=O)O)C(=O)NCC(=O)N[C@@H](CCSC)C(=O)N[C@@H](CO)C(=O)N[C@H](C(=O)N[C@@H](Cc1c[nH]c2ccccc12)C(=O)N[C@@H](CO)C(=O)NC(C)(C)C(=O)N[C@@H](CCCNC(=N)N)C(=O)N[C@@H](CCCCN)C(=O)N[C@@H](CCCCN)C(N)=O)[C@@H](C)O

Non-standard residues stand in square brackets, D forms with d. 1Nal = N[C@@H](Cc1cccc2ccccc12)C(=O)O; Nle = CCCC[C@H](N)C(=O)O; Aib = CC(C)(N)C(=O)O

The target in the assay is T1, RXFP1 receptor (UniProt Q9HBX9 1-757, limits assumed).
T1 sequence (looked up): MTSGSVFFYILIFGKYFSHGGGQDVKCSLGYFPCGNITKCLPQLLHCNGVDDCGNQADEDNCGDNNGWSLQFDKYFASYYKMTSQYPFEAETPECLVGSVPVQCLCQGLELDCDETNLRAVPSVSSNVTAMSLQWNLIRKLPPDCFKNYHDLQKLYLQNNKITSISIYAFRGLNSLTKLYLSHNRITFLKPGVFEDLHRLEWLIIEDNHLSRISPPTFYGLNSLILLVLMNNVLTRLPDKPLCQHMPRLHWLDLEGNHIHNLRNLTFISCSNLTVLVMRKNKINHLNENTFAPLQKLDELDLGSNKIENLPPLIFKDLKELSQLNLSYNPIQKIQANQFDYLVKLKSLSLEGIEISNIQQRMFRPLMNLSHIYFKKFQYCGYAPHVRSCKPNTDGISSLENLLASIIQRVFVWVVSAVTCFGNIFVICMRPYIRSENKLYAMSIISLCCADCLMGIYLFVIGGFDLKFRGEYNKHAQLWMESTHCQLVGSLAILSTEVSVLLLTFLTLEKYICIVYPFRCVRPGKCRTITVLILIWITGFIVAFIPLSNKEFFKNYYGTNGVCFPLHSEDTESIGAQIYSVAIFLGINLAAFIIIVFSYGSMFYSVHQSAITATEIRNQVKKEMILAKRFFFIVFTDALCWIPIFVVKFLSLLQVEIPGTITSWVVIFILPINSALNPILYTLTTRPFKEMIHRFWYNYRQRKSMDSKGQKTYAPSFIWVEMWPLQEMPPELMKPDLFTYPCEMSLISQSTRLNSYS
In words: cell-based or functional assay.
B1: the “cAMP assay in OVCAR 5 cells EC50” value stood at 251 nM and the “cAMP assay in OVCAR 5 cells Emax” value was determined as 104%.
The corresponding values for B2 are 190 nM and 104%.
In the same order, the values of B3 are 45 nM and 106%.
The corresponding values for B4 are 31.9 nM and 103%.
As for B5, the “cAMP assay in OVCAR 5 cells EC50” value was determined as 127 nM and the “cAMP assay in OVCAR 5 cells Emax” value came to 103%.
B6: the “cAMP assay in OVCAR 5 cells EC50” value came out at 52.4 nM and the “cAMP assay in OVCAR 5 cells Emax” value turned out to be 104%.
In the same order, the values of B7 are 10.7 nM and 102%.
The corresponding values for B8 are 14.1 nM and 99%.

For the origin of these results see patent publication US20190233495A1 (Sanofi, published 2019).
